In the experiment the target is His–CtBP1 (UniProt Q13363). As to the kind of experiment: SEC. A general note: SEC sorts molecules by how far they enter the pores of the column.

Usually stoichiometry N stands for a count of units in the complex or per binding partner. The substance “His–CtBP1 (from UniProt Q13363 1-440) (natural protein)” returned a stoichiometry N of 2.

Values taken from publication PMC6237275.
